In patent US9144594B2, “Cathepsin L mediated diseases and associated methods and products” (University of Miami, priority 2005, dated 2015):

Assays:
[1] = test system: LPS induced mouse proteinuria model; test: LPS induced mouse proteinuria model, protein in urine (prevention and reversal by dynamin gene delivery); type: in vivo; settings: 2xLPS
Procedure: Next, it was examined whether gene transfer of dynR725A and dynL356Q, G358V was able to protect from LPS induced changes of podocyte FP and thus proteinuria (FIGS. 6A-B); (Table 2B). […] Whereas the application of wildtype dynamin was unable to protect from LPS induced podocyte FP effacement (data not shown) and proteinuria (0.63 mg/ml after 24 hours, p<0.05 and 1.18 mg/ml after 48 hours, p<0.04); table 2B, the co-administration of R725A together with LPS completely abolished the development of proteinuria after 24 hours (0.20 mg/ml). Podocyte FPs remained normal at this timepoint (FIG. 6B). The decline of R725A expression in podocytes was then associated with the development of proteinuria (1.25 mg/ml, 48 h). At this time point, there was noticeable podocyte FP effacement. The application of the cathepsin L resistant dynamin mutant L356Q, G358V together with LPS conferred a partial protection from proteinuria (0.47 mg/ml, P<0.05). This protection was associated with normal appearing podocyte FP (FIG. 6C). Although this protection was not as strong as the one provided by dynR725A, it was prolonged and was still present even after the second dose of LPS ([…], P<0.04). This observation argues that lower expression levels of dynL356Q, G358V are required to protect from LPS induced FP effacement but the presence of dynR725A has the most powerful protection.
Another set of experiments was carried out to study whether dynR725A and dynL356Q, G358V are also useful once there is already established podocyte damage and proteinuria (reversal experiments), (FIGS. 6C, D); (Table 2C). First LPS was injected in mice at 0 and 24 hours and the course of urinary protein loss was documented. On the peak phase of proteinuria at 48 hours after the first LPS injection, either delivery solution (control), dynR725A or dynL356Q, G358V dynamin mutants were transferred and the morphology of podocyte FP was analyzed and the degree of proteinuria was determined 10 hours later when there was strong expression of the transferred gene in podocytes. […] A dramatic reformation of podocyte FPs was also observed (FIG. 6C). The same observation was true for L356Q, G358V (FIG. 6D) which was able to reduce proteinuria from 1.20 mg/ml to 0.71 mg/ml). From the in vitro data it was determined that R725A starts to self assemble into higher order structures in the LPS setting which render dynamin assembly domain protected from cathepsin L cleavage. […] In addition, dominant activating dynR725A proves useful because despite causing podocyte damage in wildtype mice, it can resist cathepsin L cleavage by self assembly in the LPS setting and have strong activity by impairment in its GTP hydrolysis.
If dynamin is a target of CatL, then dynL356Q and dynR725A, which are resistant to CatL cleavage, might protect kidneys from LPS. In control mice, two injections of LPS led to FP effacement (FIG. 21C) and a large increase in proteinuria (FIG. 21E, Con).
Next it was examined whether dynL356Q and dynR725A can reverse already established proteinuria. LPS was injected into mice at 0 and 24 hours. At the peak of proteinuria at 48 hours, mice were injected with dynWT, dynL356Q, or dynR725A, and the degree of proteinuria was analyzed 12 hours post injection. […] The rescue could be achieved with both podocin and CMV-driven protein expression.
All animal studies were approved by the MGH Subcommittee for Research Animal Care. C57BL6 mice were obtained from Jackson Laboratory (Bar Harbor, Me.). CatL−/− mice are in a pure C57BL6 background (Nakagawa et al., Science 280, 450-453 (1998)). LPS induced mouse proteinuria model was utilized as previously described (Reiser et al., J Clin Invest 113, 1390-1397 (2004)). Rat PAN nephrosis model was induced by a single intravenous injection of PAN (180 mg/kg body wt; Sigma-Aldrich, St. Louis, Mo.) (Kim et al., Am J Physiol Renal Physiol 286, F922-935 (2004)). […]

mice = test: Protein in urine after in vivo gene delivery of dynamin mutants into healthy mice (Bradford); design: species or system mouse; settings: Table 5 Basic Phenotype, podocin-driven vectors
Procedure: Next, the level of urinary protein loss following gene delivery of dynamin mutants was examined (Table 2). […] The expression of K44A was associated with severe proteinuria (1.18 mg/ml) at peak gene expression time of 10 hours post injection. The reduction in gene expression was paralleled by a reduction in proteinuria (0.77 mg/ml). Gene transfer of dynR725A caused an increase in proteinuria (0.58 mg/ml). Although this was not a significant increase, it is probable that it is a consequence of the partial podocyte FP effacement seen after gene transfer of dynR725A, and due to increase in the stress fibers formation observed in cultured podocytes.
To explore whether functional dynamin is required for the maintenance of FP morphology in healthy kidneys, it was examined whether expression of dominant negative dynK44A disrupts podocyte function. […] In contrast, podocin driven expression of dynK44A, the dynamin mutant that cannot bind GTP, caused FP effacement (FIG. 21B) and proteinuria (1.1±0.26 mg/ml) at the peak of gene expression […] after gene delivery (FIGS. 21D and 25C). […] In other words, tight regulation of the life-time of the GTP-bound form of dynamin appears to be required for normal FP morphology and ultrafiltration.
CatL plasmids encoding short and long CatL (Goulet et al., Biol Chem 387, 1285-1293 (2004)), Dyn1 plasmids (pcDNA-driven) or p2.5 Podocin-driven (Moeller et al., Genesis 35, 39-42 (2003)) were introduced into mice (n>10, each construct) using the TransIT in vivo gene delivery system according to the manufacturer's instruction (Mirus Bio Corporation, Madison, Wis.). 10 and 24 h after gene delivery, proteinuria was assessed by Multistix 8 SG strips (Bayer Corporation, Elkhart, Ind.), and Bradford protein assay (Sigma, Saint Louis, Mo.). From the same urines the protein creatinine ratio was determined with Albuwell M and Creatinine Companion protein creatinine ELISA kits (Exocell Inc., Philadelphia, Pa.).

| Molecule | Protein in the urine ([1]; Table 5 Prevention, t = 0) | Protein in the urine ([1]; Table 5 Prevention, t = 24 h) | Protein in the urine ([1]; Table 5 Prevention, t = 48 h) | Protein in the urine ([1]; Table 5 Reversal, t = 0) | Protein in the urine ([1]; Table 5 Reversal, t = 48 h) | Protein in the urine ([1]; Table 5 Reversal, t = 58 h) | Protein in the urine (mice; t = 0) | Protein in the urine (mice; t = 14 h) | Protein in the urine (mice; t = 24 h) |
| --- | --- | --- | --- | --- | --- | --- | --- | --- | --- |
| WT (CMV): CMV promoter-driven wild type dyn1 vector, gene delivery | 0.28 ± 0.07 mg/mL | 0.63 ± 0.12 (1.3.2 × 10^−3) mg/ml | 1.18 ± 0.23 (7.6 × 10^−5) mg/ml | 0.30 ± 0.11 mg/mL | 0.17 ± 0.20 mg/mL | 1.10 ± 0.18 mg/mL | – | – | – |
| R725A (CMV): CMV promoter-driven dynR725A vector, gene delivery (protein, UniProt Q05193 1-864, looked up, variant R725A, expressed from CMV vector, CMV promoter-driven dynR725A vector, gene delivery) Dynamin-1: MGNRGMEDLIPLVNRLQDAFSAIGQNADLDLPQIAVVGGQSAGKSSVLENFVGRDFLPRGSGIVTRRPLVLQLVNATTEYAEFLHCKGKKFTDFEEVRLEIEAETDRVTGTNKGISPVPINLRVYSPHVLNLTLVDLPGMTKVPVGDQPPDIEFQIRDMLMQFVTKENCLILAVSPANSDLANSDALKVAKEVDPQGQRTIGVITKLDLMDEGTDARDVLENKLLPLRRGYIGVVNRSQKDIDGKKDITAALAAERKFFLSHPSYRHLADRMGTPYLQKVLNQQLTNHIRDTLPGLRNKLQSQLLSIEKEVEEYKNFRPDDPARKTKALLQMVQQFAVDFEKRIEGSGDQIDTYELSGGARINRIFHERFPFELVKMEFDEKELRREISYAIKNIHGIRTGLFTPDMAFETIVKKQVKKIREPCLKCVDMVISELISTVRQCTKKLQQYPRLREEMERIVTTHIREREGRTKEQVMLLIDIELAYMNTNHEDFIGFANAQQRSNQMNKKKTSGNQDEILVIRKGWLTINNIGIMKGGSKEYWFVLTAENLSWYKDDEEKEKKYMLSVDNLKLRDVEKGFMSSKHIFALFNTEQRNVYKDYRQLELACETQEEVDSWKASFLRAGVYPERVGDKEKASETEENGSDSFMHSMDPQLERQVETIRNLVDSYMAIVNKTVRDLMPKTIMHLMINNTKEFIFSELLANLYSCGDQNTLMEESAEQAQRADEMLRMYHALKEALSIIGDINTTTVSTPMPPPVDDSWLQVQSVPAGRRSPTSSPTPQRRAPAVPPARPGSRGPAPGPPPAGSALGGAPPVPSRPGASPDPFGPPPQVPSRPNRAPPGVPSRSGQASPSRPESPRPPFDL | 0.17 ± 0.08 mg/mL | 0.20 ± 0.05 mg/mL | 1.25 ± 0.29 (5.0 × 10^−6) mg/ml | 0.28 ± 0.10 mg/mL | 1.15 ± 0.17 mg/mL | 0.38 ± 0.23 (1.8 × 10^−3) mg/ml | – | – | – |
| K44A (podo): podocin promoter-driven dynK44A vector, gene delivery (protein, UniProt Q05193 1-864, looked up, variant K44A, podocin promoter vector, podocin promoter-driven dynK44A vector, gene delivery) Dynamin-1: MGNRGMEDLIPLVNRLQDAFSAIGQNADLDLPQIAVVGGQSAGASSVLENFVGRDFLPRGSGIVTRRPLVLQLVNATTEYAEFLHCKGKKFTDFEEVRLEIEAETDRVTGTNKGISPVPINLRVYSPHVLNLTLVDLPGMTKVPVGDQPPDIEFQIRDMLMQFVTKENCLILAVSPANSDLANSDALKVAKEVDPQGQRTIGVITKLDLMDEGTDARDVLENKLLPLRRGYIGVVNRSQKDIDGKKDITAALAAERKFFLSHPSYRHLADRMGTPYLQKVLNQQLTNHIRDTLPGLRNKLQSQLLSIEKEVEEYKNFRPDDPARKTKALLQMVQQFAVDFEKRIEGSGDQIDTYELSGGARINRIFHERFPFELVKMEFDEKELRREISYAIKNIHGIRTGLFTPDMAFETIVKKQVKKIREPCLKCVDMVISELISTVRQCTKKLQQYPRLREEMERIVTTHIREREGRTKEQVMLLIDIELAYMNTNHEDFIGFANAQQRSNQMNKKKTSGNQDEILVIRKGWLTINNIGIMKGGSKEYWFVLTAENLSWYKDDEEKEKKYMLSVDNLKLRDVEKGFMSSKHIFALFNTEQRNVYKDYRQLELACETQEEVDSWKASFLRAGVYPERVGDKEKASETEENGSDSFMHSMDPQLERQVETIRNLVDSYMAIVNKTVRDLMPKTIMHLMINNTKEFIFSELLANLYSCGDQNTLMEESAEQAQRRDEMLRMYHALKEALSIIGDINTTTVSTPMPPPVDDSWLQVQSVPAGRRSPTSSPTPQRRAPAVPPARPGSRGPAPGPPPAGSALGGAPPVPSRPGASPDPFGPPPQVPSRPNRAPPGVPSRSGQASPSRPESPRPPFDL | – | – | – | – | – | – | 0.24 ± 0.08 mg/mL | 1.09 ± 0.27 (3.0 × 10^−5) mg/ml | 0.42 ± 0.16 (5.2 × 10^−3) mg/ml |
| WT (podo): podocin promoter-driven wild type dyn1 vector, gene delivery (protein, UniProt Q05193 1-864, looked up, podocin promoter vector, podocin promoter-driven wild type dyn1 vector, gene delivery) Dynamin-1: MGNRGMEDLIPLVNRLQDAFSAIGQNADLDLPQIAVVGGQSAGKSSVLENFVGRDFLPRGSGIVTRRPLVLQLVNATTEYAEFLHCKGKKFTDFEEVRLEIEAETDRVTGTNKGISPVPINLRVYSPHVLNLTLVDLPGMTKVPVGDQPPDIEFQIRDMLMQFVTKENCLILAVSPANSDLANSDALKVAKEVDPQGQRTIGVITKLDLMDEGTDARDVLENKLLPLRRGYIGVVNRSQKDIDGKKDITAALAAERKFFLSHPSYRHLADRMGTPYLQKVLNQQLTNHIRDTLPGLRNKLQSQLLSIEKEVEEYKNFRPDDPARKTKALLQMVQQFAVDFEKRIEGSGDQIDTYELSGGARINRIFHERFPFELVKMEFDEKELRREISYAIKNIHGIRTGLFTPDMAFETIVKKQVKKIREPCLKCVDMVISELISTVRQCTKKLQQYPRLREEMERIVTTHIREREGRTKEQVMLLIDIELAYMNTNHEDFIGFANAQQRSNQMNKKKTSGNQDEILVIRKGWLTINNIGIMKGGSKEYWFVLTAENLSWYKDDEEKEKKYMLSVDNLKLRDVEKGFMSSKHIFALFNTEQRNVYKDYRQLELACETQEEVDSWKASFLRAGVYPERVGDKEKASETEENGSDSFMHSMDPQLERQVETIRNLVDSYMAIVNKTVRDLMPKTIMHLMINNTKEFIFSELLANLYSCGDQNTLMEESAEQAQRRDEMLRMYHALKEALSIIGDINTTTVSTPMPPPVDDSWLQVQSVPAGRRSPTSSPTPQRRAPAVPPARPGSRGPAPGPPPAGSALGGAPPVPSRPGASPDPFGPPPQVPSRPNRAPPGVPSRSGQASPSRPESPRPPFDL | – | – | – | – | – | – | 0.28 ± 0.06 mg/mL | 0.54 ± 0.13 (4.2 × 10^−3) mg/ml | 0.46 ± 0.16 (4.6 × 10^−2) mg/ml |
